Key:
[1] = molecular target: DNA polymerase beta P242R (rs3136797) (Homo sapiens, UniProt P06746 1-335, P242R); test: EMSA; EMSA as described previously (ref 34); buffer, salt, pH and temperature not given in the material
[2] = molecular target: DNA polymerase beta WT (242Pro) (Homo sapiens, UniProt P06746 1-335); test: as above

B1: 1-bp gapped DNA (dsDNA)
DNA 1: GCCTCGCAGCCGTCCAACCAAC
DNA 2: CAACCTCGATCCAATGCCGTCC
DNA 3: GGACGGCATTGGATCGAGGTTGAGTTGGTTGGACGGCTGCGAGGC
modifications: 5' phosphate on downstream oligo (S8)
Binder B1 has a Kd [1] of 5 nM and a Kd [2] of 5 nM.
